In US20090226404A1 (published 2009) one finds binding result and EC50 of peptide data, which are given here for 1 molecule.

Where only a bound is given, the exact number is not on record here.

The target in assay [1] is T1, gp100 (209-217 analogue) peptide on HLA-A*02:01 (human).
T1 peptide: IMDQVPFSV
Nature of the assay: killing.

The target in assay [2] is T2, gp100 peptide on HLA-A*02:01 (human).
T2 peptide: YLEPGPVTA
Nature of the assay: cytolytic efficiency of the parental 296 CTL clone, peptide titration; value cited from ref. 24; T cell clone or line.

Assay [3] deals with T2, gp100 peptide on HLA-A*02:01. Nature of the assay: cytolytic efficiency of retrovirally transduced T cells, peptide titration; value taken from earlier work (ref. 24); full-length, on cells.
For assay [4] the target is unchanged. In words: 51Cr release with peptide titrated on T2 cells; RNA-electroporated CD8+ T cells 24 h after electroporation; upper end of the range; full-length, on cells. How it is done: (§1) CD8⁺ T cells were electroporated with EGFP RNA (Neg) or RNA coding for the TCR α and β chain, and were used as effector cells in cytotoxicity assays 24 h after electroporation. T2 cells loaded with different concentrations of gp100₂₈₀₋₂₈₈ peptide (as indicated) were used as target cells, and % lysis was calculated. The target to effector cell ratio was 1:15. The peptide concentration corresponding to 50% of the maximum lysis (ED₅₀), used to measure the cytolytic efficiency, is indicated by the dotted line. Average values of triplicates±SD are shown. Data of one (out of five) representative T cell donor is shown.
(§2) From previous published work, we know that the cytolytic efficiency of the parental 296 CTL clone was preserved following retroviral transduction of TCR genes into T cells. To test the avidity of the TCR RNA-transfected T cells, we performed a cytotoxicity assay (24 h after electroporation) in which we titrated the gp100₂₈₀₋₂₈₈ peptide on T2 target cells (FIG. 6). The peptide concentration corresponding to 50% of the maximum lysis (i.e. ED₅₀) of the TCR RNA-transfected T cells ranged from 300-1000 pM in three independent experiments (FIG. 6). This is in the same range as the cytolytic efficiency of the retrovirally transduced T cells (ED₅₀=300 pM). Both approximate the cytolytic efficiency of the parental 296 CTL clone, which has an ED₅₀ of 50 pM [24]. […]

Assay [5] has the same target. Nature of the assay: 51Cr release with peptide titrated on T2 cells; RNA-electroporated CD8+ T cells 24 h after electroporation; ED50 is the peptide concentration at 50% of maximum lysis; lower end of the range; full-length, on cells. How it is done: as §1, §2

B1: gp100-specific 296 TCR (TCR, V domains shown)
Valpha: GENVEQHPSTLSVQEGDSAVIKCTYSDSASNYFPWYKQELGKGPQLIIDIRSNVGEKKDQRIAVTLNKTAKHFSLHITETQPEDSAVYFCAASTSGGTSYGKLTFGQGTILTVHP
Vbeta: EAQVTQNPRYLITVTGKKLTVTCSQNMNHEYMSWYRQDPGLGLRQIYYSMNVEVTDKGDVPEGYKVSRKEKRNFPLILESPSPNQTSLYFCASSLGSSYEQYFGPGTRLTVT
With B1, the binding result in assay [1] is reported as “no recognition”. Further, the EC50 of peptide was 0.05 nM in assay [2], 0.3 nM in assay [3], no more than 1 nM in assay [4] and no less than 0.3 nM in assay [5].
